The values below come from publication PMC3519819.

This experiment has as its target IscS fused with the bait protein (pBT-IscS, pJTU3618) (E. coli), P0A6B7. Briefly: two-hybrid; BacterioMatch II bacterial two-hybrid; IscS on pBT (bait), Dpt proteins on pTRG (target); reporter strain E. coli XL1-Blue MRF' Kan; colonies counted on Selective Screening Medium with 5 mM 3-AT against nonselective medium, 24 h at 37°C. Particulars: remark: other sources report otherwise.

IscS fused with the bait protein (pBT-IscS, pJTU3618) (E. coli), P0A6B7, sequence (P0A6B7 whole entry, the tested form may be a part): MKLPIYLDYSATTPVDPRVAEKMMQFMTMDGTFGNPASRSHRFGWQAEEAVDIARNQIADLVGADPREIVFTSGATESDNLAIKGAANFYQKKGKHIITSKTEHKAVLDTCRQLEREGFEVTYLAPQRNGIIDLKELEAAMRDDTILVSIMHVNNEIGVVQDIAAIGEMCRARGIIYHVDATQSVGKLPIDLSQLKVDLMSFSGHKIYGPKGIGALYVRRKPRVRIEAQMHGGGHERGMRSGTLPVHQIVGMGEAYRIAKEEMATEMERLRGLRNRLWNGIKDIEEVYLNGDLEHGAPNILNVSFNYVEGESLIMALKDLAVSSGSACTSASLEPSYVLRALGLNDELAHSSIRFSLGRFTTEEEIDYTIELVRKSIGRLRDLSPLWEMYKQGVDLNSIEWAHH

B1: DptC fused with the target protein (pTRG-DptC, pJTU3610), E2D677 1-544 (natural protein)
chain: MSKLVQAYDLAEYEDFINQEQFAGRPLAEYVAEVQRIYCADKRPWVIGYSGGKDSSAVITLVYLALLGLPPEMRSKDVFIVSSDTLVETPVVVDLIKKTMLQIEAGAKRNGLPITQHAVTPKTNETFWVNLLGKGYPAPTRSFRWCTERMKINPVSDFIKDKVSQFDEVIVVLGSRSSESASRAQVIAKHKIDGSRLARHTTLANAFIYTPIDTWDVEDVWKLLRGAFRYAPEDIDEWESPWGGNNRPLWTLYMDSSAQGECPLVIDESTPSCGNSRFGCWTCTVVTKDKAMESLIKNGEEWMSPLLKYRDLLAFTTDPANKDTYRNYKRRTGKVSYQYAKDGEDRSAERKHVPGPYWLKYRQQWLKDLLEIERDLNAQGHTITLITQPELHAIRQEWLKDPNEPDWHDTLPEIYREVYQQDLNWVVDDQSRFDASDADLLAQITQGFDVVPEMVMKLIELETSMEGLSRRQGIFDKLGTILKQDWGSLEEIQQQQATLQKRNDRDIHQDEVEKLEAELQTLQRRIIDAGESSVLIDEENERAH
For B1, the surviving cells on 3AT amounted to 2%.
